The text below walks through data of publication PMC3240820 (Structure (London, England : 1993), 2011).

Read-outs that look alike come from different tables or passages of the source.

The data set “crystal structure” deals with the molecule itself. Briefly: crystal structure.
Data set [1] addresses T1, CaMK domain of CASK (CASK310), residues 1-310 (UniProt O14936 1-310).
T1 sequence (looked up): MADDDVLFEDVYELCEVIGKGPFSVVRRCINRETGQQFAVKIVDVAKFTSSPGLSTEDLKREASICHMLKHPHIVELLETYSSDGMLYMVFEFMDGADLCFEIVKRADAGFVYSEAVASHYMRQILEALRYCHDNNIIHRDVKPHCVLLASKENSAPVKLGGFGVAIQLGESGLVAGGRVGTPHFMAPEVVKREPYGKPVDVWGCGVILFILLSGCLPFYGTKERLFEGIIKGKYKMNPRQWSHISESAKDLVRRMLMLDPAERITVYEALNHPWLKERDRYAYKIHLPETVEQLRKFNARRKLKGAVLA
Description: co-precipitation on dialysis into low salt.

The next data set has as its target Caskin1 CID-2SAMs G520E (human, UniProt Q8WXD9 375-605, G520E). Briefly: SEC.
Data set [2] concerns the molecule itself.

Caskin1 CID-2SAMs G520E, sequence (Q8WXD9 375-605 G520E): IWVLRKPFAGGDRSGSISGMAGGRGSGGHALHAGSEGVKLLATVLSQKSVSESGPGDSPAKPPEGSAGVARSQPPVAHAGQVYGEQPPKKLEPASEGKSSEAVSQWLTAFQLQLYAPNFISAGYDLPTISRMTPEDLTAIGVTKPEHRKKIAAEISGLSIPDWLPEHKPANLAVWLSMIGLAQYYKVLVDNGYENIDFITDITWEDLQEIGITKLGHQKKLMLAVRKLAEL

B1: Caskin1 6His-(E470-G615) (domain or fragment)
chain: not shown
In the case of B1, in “crystal structure”, the binding result is recorded as “binds”.

B2: Caskin1 CID-2SAMs (residues 375-605) (domain or fragment)
chain: not shown
Turning to B2, the binding result in data set [1] was “binds”.

B3: Caskin1 CID-2SAMs G566K (domain or fragment)
chain: not shown
As to B3, the binding result with Caskin1 CID-2SAMs G520E is reported as “binds”.

B4: Caskin1 SAMs (E470-G615) with the His-tag removed (domain or fragment)
chain: not shown
Regarding B4, the binding result in data set [2] is on record as “binds”.
